± gives the standard deviation.
Experiment: collision cross section of modified peptide (TIMS, N2, iRT-aligned); higher = larger / more extended gas-phase ion
In short: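 Values are averages of 1–3 technical replicates of the most abundant feature for each charge state. Collision cross section was obtained from the Mason-Schamp equation after 1/K0 calibration with three reference ions and run-wise alignment to the median iRT peptide deviation. Synthetic peptide pools (iRT standard spiked 1:40) were separated on a 120-min nanoflow C18 gradient at 60 °C, analysed on a timsTOF Pro/HT (dda-PASEF, nitrogen, ~2.4 mbar) and identified with MaxQuant.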

[1] = charge state: 2, modification: Phospho (Y)
[2] = charge state: 2, modification: Nitro (Y)
[3] = charge state: 2, modification: Acetyl (K)
[4] = charge state: 3, modification: Acetyl (K)
[5] = charge state: 3, modification: Trimethyl (K)
[6] = charge state: 2, modification: Trimethyl (K)
[7] = charge state: 2, modification: Biotin

Substance: TVSKVDDFLANEAK [_TVSK(Crotonyl)VDDFLANEAK_]
- collision cross section (charge state: 2, modification: Crotonyl): 421.27 ± 0.55 Å²

Substance: SPDEAYAIAKK [_SPDEAYAIAK(Dimethyl (K))K_]
- collision cross section (charge state: 2, modification: Dimethyl (K)): 376.23 ± 0.37 Å²
- collision cross section (charge state: 3, modification: Dimethyl (K)): 437.31 ± 0.63 Å²

Substance: TLQKQSVVYGGK [_TLQK(GlyGly (K))QSVVYGGK_]
- collision cross section (charge state: 2, modification: GlyGly (K)): 403.57 ± 1.5 Å²
- collision cross section (charge state: 3, modification: GlyGly (K)): 459.43 ± 2 Å²

Substance: TLQKQSVVYGGK [_TLQK(Gluratylation)QSVVYGGK_]
- collision cross section (charge state: 2, modification: Glutarylation): 399.42 ± 0.6 Å²

Substance: VETFSGVYK [_VETFSGVY(Phospho (Y))K_]
- collision cross section [1]: 345.95 ± 0.75 Å²

Substance: LAEQEAHYAVR [_LAEQEAHY(Nitro (Y))AVR_]
- collision cross section [2]: 388.92 ± 0.55 Å²
- collision cross section (charge state: 3, modification: Nitro (Y)): 469.49 ± 1.9 Å²

Substance: GDYDLNAVR [_GDY(Phospho (Y))DLNAVR_]
- collision cross section [1]: 348.87 ± 0.066 Å²

Substance: ITLSKHQNVQLPR [_ITLSK(Acetyl (K))HQNVQLPR_]
- collision cross section [3]: 436.23 ± 3.2 Å²
- collision cross section [4]: 526.67 ± 2.1 Å²

Substance: ILDLKTGTVK [_ILDLK(Propionyl)TGTVK_]
- collision cross section (charge state: 2, modification: Propionyl): 359.51 ± 0.33 Å²

Substance: LELAQYR [_LELAQY(Phospho (Y))R_]
- collision cross section [1]: 329.12 ± 0.75 Å²

Substance: GAEKTEVAEPR [_GAEK(Trimethyl (K))TEVAEPR_]
- collision cross section [5]: 447.07 ± 3.3 Å²

Substance: KFGVLSDNFK [_K(Trimethyl (K))FGVLSDNFK_]
- collision cross section [6]: 372.9 ± 0.61 Å²
- collision cross section [5]: 457.56 Å²

Substance: DYSAPVNFISAGLKK [_DYSAPVNFISAGLK(Trimethyl (K))K_]
- collision cross section [6]: 463.71 ± 1 Å²
- collision cross section [5]: 523.24 ± 1.8 Å²

Substance: DFDTALKHYDK [_DFDTALK(hydroxyisobutyryl)HYDK_]
- collision cross section (charge state: 2, modification: hydroxyisobutyryl): 409.01 ± 0.39 Å²
- collision cross section (charge state: 3, modification: hydroxyisobutyryl): 468.72 ± 1.9 Å²

Substance: DYNVTANSK [_DY(Nitro (Y))NVTANSK_]
- collision cross section [2]: 334.81 ± 0.16 Å²

Substance: ASEALLKQLK [_ASEALLK(Butyryl)QLK_]
- collision cross section (charge state: 2, modification: Butyryl): 379.45 ± 0.72 Å²

Substance: IDLPAENSNSETIIITGKR [_IDLPAENSNSETIIITGK(Succinyl)R_]
- collision cross section (charge state: 2, modification: Succinyl): 492.62 ± 0.3 Å²

Substance: LYDIDVAK [_LY(Nitro (Y))DIDVAK_]
- collision cross section [2]: 344.32 ± 0.56 Å²

Substance: PASGAGAGAGAGKR [_PASGAGAGAGAGK(Trimethyl (K))R_]
- collision cross section [6]: 392.96 ± 2.2 Å²
- collision cross section [5]: 465.02 ± 1.8 Å²

Substance: GETASKLQSEISR [_GETASK(Trimethyl (K))LQSEISR_]
- collision cross section [5]: 463.43 ± 1.5 Å²

Substance: GYGVIFANGNR [_GY(Nitro (Y))GVIFANGNR_]
- collision cross section [2]: 360.58 ± 1.2 Å²

Substance: LEEVTGKLQVAR [_LEEVTGK(Acetyl (K))LQVAR_]
- collision cross section [3]: 391.97 ± 0.61 Å²
- collision cross section [4]: 467.89 Å²

Substance: FGTINIVHPKLGSYTK [_FGTINIVHPK(Crotonyl)LGSYTK_]
- collision cross section (charge state: 3, modification: Crotonyl): 553.88 ± 2 Å²

Substance: INNFSADIKDSK [_INNFSADIK(Biotin)DSK_]
- collision cross section [7]: 419.19 Å²

Substance: DLEEAEEYK [_DLEEAEEY(Phospho (Y))K_]
- collision cross section [1]: 369.49 ± 0.064 Å²

Substance: DVNAAIAAIKTK [_DVNAAIAAIK(Biotin)TK_]
- collision cross section [7]: 423.85 Å²

Substance: IQTKAGEATVK [_IQTK(Trimethyl (K))AGEATVK_]
- collision cross section [6]: 376.56 ± 1.1 Å²
- collision cross section [5]: 436.23 Å²

Substance: GRGYFEHR [_GR(Citrullination (R))GYFEHR_]
- collision cross section (charge state: 2, modification: Citrullination (R)): 339.49 ± 1.6 Å²
- collision cross section (charge state: 3, modification: Citrullination (R)): 411.67 ± 1.3 Å²

Substance: AYILNLVK [_AY(Nitro (Y))ILNLVK_]
- collision cross section [2]: 333.68 ± 0.72 Å²

Substance: SHLRHAIPSAER [_SHLR(Methyl (R))HAIPSAER_]
- collision cross section (charge state: 2, modification: Methyl (R)): 404.4 Å²
- collision cross section (charge state: 3, modification: Methyl (R)): 477.29 ± 19 Å²
